The target of assay [1] is T1, human CD3ε/δ (ACRO systems, CDD-H52W1) (human, UniProt P07766 23-126; P04234 22-105).
T1 construct: bought recombinant heterodimer; also called human CD3 epsilon/delta; Human CD3ε/CD3δ
The assay can be described thus: serum-stability ELISA, Day 7 vs Day 0.

In assay [2] the target is T1, human CD3ε/δ (ACRO systems, CDD-H52W1). As to the kind of experiment: serum-stability ELISA, Day 6 vs Day 0. For orientation: ELISA stands for enzyme-linked immunosorbent assay.
The target is the same in assay [3]. The assay can be described thus: serum-stability ELISA, Day 2 vs Day 0.
Experimental: (§1) The samples to be tested were centrifuged at 4° C. at 12000 rpm for 30 minutes to remove the precipitate. 200 μl of each sample to be tested (0.5 mg/ml) was collected in a 1.5 ml Eppendorf tube. An equal volume of human serum (GEMINI, H2OYOOK) was added, mixed thoroughly, and the mixture was incubated in a 37° C. constant temperature CO₂ incubator. For a total of 10 days, 40 μl samples was aspirated every day and stored at −20° C.
(§2) Enzyme-linked immunosorbent assay (ELISA) was used to test the bispecific antibodies' binding to human CEA and human CD3 epsilon/delta antigen. The steps are as follows: the antigen human CD3ε/δ (ACRO systems, CDD-H52W1) and the recombinant tumor antigen human CEA (CEACAM-5/CD66e, ACRO systems, CE5-H5226) were diluted to 1 μg/ml with PBS, and then added to the 96-well plate at 100 μl per well. The wells were coated overnight at 4° C. After washing 3 times with 0.05% PBST, 200 μl 5% skimmed milk powder was added to each well and incubated at 37° C. for 2 h. After washing 3 times with 0.05% PBST, 100 μl primary antibody sample (10 μg/ml) was added to each well, and incubated at 37° C. for 2 h. After washing 3 times with 0.05% PBST, 100 μl (1:6000) diluted secondary antibody goat anti-human Fc-HRP (sigma, A2170) was added to each well, incubated at room temperature for 1 h. After washing 8 times with 0.05% PBST, 50 μl TMB color developing solution was added to each well, and incubated at room temperature for 10-15 min. 50 μl 1 mM HCl was added to each well to stop the color development. 450 nm Absorbance (OD) was read.
(§3) The binding of antibodies to antigen was calculated according to the following formula: Binding (%)=[(ODdayn−ODb)/(ODday0−ODb)]×100%. ODdayn: experimental well (the protein was stored in the serum for n days); ODday0: control well (the protein was not stored in the serum); ODb: blank well (no primary antibody added).
Assay [4] has the same target. The assay can be described thus: serum-stability ELISA, Day 9 vs Day 0.
Experimental: as §1, §2, §3
Assay [5] has the same target. The assay can be described thus: serum-stability ELISA, Day 10 vs Day 0.
Experimental: as §1, §2, §3
For assay [6] the target is unchanged. As to the kind of experiment: serum-stability ELISA, Day 0 (reference).
Experimental: as §1, §2, §3
For assay [7] the target is unchanged. As to the kind of experiment: serum-stability ELISA, Day 5 vs Day 0.
Experimental: as §1, §2, §3
The target is the same in assay [8]. As to the kind of experiment: serum-stability ELISA, Day 1 vs Day 0.
Experimental: as §1, §2, §3

B1: 108 (Knob-Fab+CEA-Hole) (bispecific antibody, human IgG4 S228P, kappa, F234A L235A)
heavy: ESKYGPPCPPCPAPEAAGGPSVFLFPPKPKDTLMISRTPEVTCVVVDVSQEDPEVQFNWYVDGVEVHNAKTKPREEQFNSTYRVVSVLTVLHQDWLNGKEYKCKVSNKGLPSSIEKTISKAKGQPREPQVYTLPPCQEEMTKNQVSLWCLVKGFYPSDIAVEWESNGQPENNYKTTPPVLDSDGSFFLYSRLTVDKSRWQEGNVFSCSVMHEALHNHYTQKSLSLSLGGGGSGGGGSEVKLLESGGGLVQPKGSLKLSCAASGFTFNTYAMNWVRQAPGKGLEWVARIRSKYNNYATYYADSVKDRFTISRDDSQSILYLQMNNLKTEDTAMYYCVRHGNFGNSYVSWFAYWGQGTLVTVSSASTKGPSVFPLAPCSRSTSESTAALGCLVKDYFPEPVTVSWNSGALTSGVHTFPAVLQSSGLYSLSSVVTVPSSSLGTKTYTCNVDHKPSNTKVDKRV
chain: EVQLVESGGGFVQAGESLTLSCTSSTLTFTPYRMAWYRQAPGKQRDLVADISSGDGRTTNYADFAKGRFTISRDNIKNTVFLRMTNLKPEDTAVYYCNTFVSFVGIARSWGQGTQVTVSSESKYGPPCPPCPAPEAAGGPSVFLFPPKPKDTLMISRTPEVTCVVVDVSQEDPEVQFNWYVDGVEVHNAKTKPREEQFNSTYRVVSVLTVLHQDWLNGKEYKCKVSNKGLPSSIEKTISKAKGQPREPQVCTLPPSQEEMTKNQVSLSCAVKGFYPSDIAVEWESNGQPENNYKTTPPVLDSDGSFFLVSRLTVDKSRWQEGNVFSCSVMHEALHNRFTQKSLSLSL
light: QAVVTQESALTTSPGETVTLTCRSSTGAVTTSNYANWVQEKPDHLFTGLIGGTNKRAPGVPARFSGSLIGDKAALTITGAQTEDEAIYFCALWYSNLWVFGGGTKVEIKRTVAAPSVFIFPPSDEQLKSGTASVVCLLNNFYPREAKVQWKVDNALQSGNSQESVTEQDSKDSTYSLSSTLTLSKADYEKHKVYACEVTHQGLSSPVTKSFNRGEC
notes: TA1 Fab, C17 VHH, IgG4 Fc KIH
As for B1, the Binding % stood at 98.8% in assay [1]; 98.4% in assay [2]; 98% in assay [3]; 98.5% in assay [4]; 66.7% in assay [5]; 100% in assay [6]. For the same molecule, the Binding % in assay [7] was found to be 96.1%; in assay [8], 93%.

B2: 110 (CEA-Knob+Hole-Fab) (bispecific antibody, human IgG4 S228P, kappa, F234A L235A)
chain: EVQLVESGGGFVQAGESLTLSCTSSTLTFTPYRMAWYRQAPGKQRDLVADISSGDGRTTNYADFAKGRFTISRDNIKNTVFLRMTNLKPEDTAVYYCNTFVSFVGIARSWGQGTQVTVSSESKYGPPCPPCPAPEAAGGPSVFLFPPKPKDTLMISRTPEVTCVVVDVSQEDPEVQFNWYVDGVEVHNAKTKPREEQFNSTYRVVSVLTVLHQDWLNGKEYKCKVSNKGLPSSIEKTISKAKGQPREPQVYTLPPCQEEMTKNQVSLWCLVKGFYPSDIAVEWESNGQPENNYKTTPPVLDSDGSFFLYSRLTVDKSRWQEGNVFSCSVMHEALHNHYTQKSLSLSL
heavy: ESKYGPPCPPCPAPEAAGGPSVFLFPPKPKDTLMISRTPEVTCVVVDVSQEDPEVQFNWYVDGVEVHNAKTKPREEQFNSTYRVVSVLTVLHQDWLNGKEYKCKVSNKGLPSSIEKTISKAKGQPREPQVCTLPPSQEEMTKNQVSLSCAVKGFYPSDIAVEWESNGQPENNYKTTPPVLDSDGSFFLVSRLTVDKSRWQEGNVFSCSVMHEALHNRFTQKSLSLSLGGGGSGGGGSEVKLLESGGGLVQPKGSLKLSCAASGFTFNTYAMNWVRQAPGKGLEWVARIRSKYNNYATYYADSVKDRFTISRDDSQSILYLQMNNLKTEDTAMYYCVRHGNFGNSYVSWFAYWGQGTLVTVSSASTKGPSVFPLAPCSRSTSESTAALGCLVKDYFPEPVTVSWNSGALTSGVHTFPAVLQSSGLYSLSSVVTVPSSSLGTKTYTCNVDHKPSNTKVDKRV
light: QAVVTQESALTTSPGETVTLTCRSSTGAVTTSNYANWVQEKPDHLFTGLIGGTNKRAPGVPARFSGSLIGDKAALTITGAQTEDEAIYFCALWYSNLWVFGGGTKVEIKRTVAAPSVFIFPPSDEQLKSGTASVVCLLNNFYPREAKVQWKVDNALQSGNSQESVTEQDSKDSTYSLSSTLTLSKADYEKHKVYACEVTHQGLSSPVTKSFNRGEC
notes: TA1 Fab, C17 VHH, IgG4 Fc KIH
In the case of B2, the Binding % in assay [1] was found to be 77.5%; in assay [2], 76.9%; in assay [3], 74.3%; in assay [4], 77%; in assay [5], 56.1%; in assay [6], 100%. The values for the Binding % in assay [7] and in assay [8] were 78.1% and 68.5%, respectively.

B3: 109 (Knob-Fab+Hole-CEA) (bispecific antibody, human IgG4 S228P, kappa, F234A L235A)
heavy: ESKYGPPCPPCPAPEAAGGPSVFLFPPKPKDTLMISRTPEVTCVVVDVSQEDPEVQFNWYVDGVEVHNAKTKPREEQFNSTYRVVSVLTVLHQDWLNGKEYKCKVSNKGLPSSIEKTISKAKGQPREPQVYTLPPCQEEMTKNQVSLWCLVKGFYPSDIAVEWESNGQPENNYKTTPPVLDSDGSFFLYSRLTVDKSRWQEGNVFSCSVMHEALHNHYTQKSLSLSLGGGGSGGGGSEVKLLESGGGLVQPKGSLKLSCAASGFTFNTYAMNWVRQAPGKGLEWVARIRSKYNNYATYYADSVKDRFTISRDDSQSILYLQMNNLKTEDTAMYYCVRHGNFGNSYVSWFAYWGQGTLVTVSSASTKGPSVFPLAPCSRSTSESTAALGCLVKDYFPEPVTVSWNSGALTSGVHTFPAVLQSSGLYSLSSVVTVPSSSLGTKTYTCNVDHKPSNTKVDKRV
chain: ESKYGPPCPPCPAPEAAGGPSVFLFPPKPKDTLMISRTPEVTCVVVDVSQEDPEVQFNWYVDGVEVHNAKTKPREEQFNSTYRVVSVLTVLHQDWLNGKEYKCKVSNKGLPSSIEKTISKAKGQPREPQVCTLPPSQEEMTKNQVSLSCAVKGFYPSDIAVEWESNGQPENNYKTTPPVLDSDGSFFLVSRLTVDKSRWQEGNVFSCSVMHEALHNRFTQKSLSLSLGGGGSGGGGSEVQLVESGGGFVQAGESLTLSCTSSTLTFTPYRMAWYRQAPGKQRDLVADISSGDGRTTNYADFAKGRFTISRDNIKNTVFLRMTNLKPEDTAVYYCNTFVSFVGIARSWGQGTQVTVSS
light: QAVVTQESALTTSPGETVTLTCRSSTGAVTTSNYANWVQEKPDHLFTGLIGGTNKRAPGVPARFSGSLIGDKAALTITGAQTEDEAIYFCALWYSNLWVFGGGTKVEIKRTVAAPSVFIFPPSDEQLKSGTASVVCLLNNFYPREAKVQWKVDNALQSGNSQESVTEQDSKDSTYSLSSTLTLSKADYEKHKVYACEVTHQGLSSPVTKSFNRGEC
notes: TA1 Fab, C17 VHH, IgG4 Fc KIH
With B3, the Binding % was 87.6% in assay [1]; 85.7% in assay [2]; 88.5% in assay [3]; 83.3% in assay [4]; 62.1% in assay [5]; 100% in assay [6]. In addition, the Binding % in assay [7] amounted to 88%; in assay [8] it was 97.5%.

B4: 111 (Knob+CEA-Hole-Fab) (bispecific antibody, human IgG4 S228P, kappa, F234A L235A)
chain: ESKYGPPCPPCPAPEAAGGPSVFLFPPKPKDTLMISRTPEVTCVVVDVSQEDPEVQFNWYVDGVEVHNAKTKPREEQFNSTYRVVSVLTVLHQDWLNGKEYKCKVSNKGLPSSIEKTISKAKGQPREPQVYTLPPCQEEMTKNQVSLWCLVKGFYPSDIAVEWESNGQPENNYKTTPPVLDSDGSFFLYSRLTVDKSRWQEGNVFSCSVMHEALHNHYTQKSLSLSL
heavy: EVQLVESGGGFVQAGESLTLSCTSSTLTFTPYRMAWYRQAPGKQRDLVADISSGDGRTTNYADFAKGRFTISRDNIKNTVFLRMTNLKPEDTAVYYCNTFVSFVGIARSWGQGTQVTVSSESKYGPPCPPCPAPEAAGGPSVFLFPPKPKDTLMISRTPEVTCVVVDVSQEDPEVQFNWYVDGVEVHNAKTKPREEQFNSTYRVVSVLTVLHQDWLNGKEYKCKVSNKGLPSSIEKTISKAKGQPREPQVCTLPPSQEEMTKNQVSLSCAVKGFYPSDIAVEWESNGQPENNYKTTPPVLDSDGSFFLVSRLTVDKSRWQEGNVFSCSVMHEALHNRFTQKSLSLSLGGGGSGGGGSEVKLLESGGGLVQPKGSLKLSCAASGFTFNTYAMNWVRQAPGKGLEWVARIRSKYNNYATYYADSVKDRFTISRDDSQSILYLQMNNLKTEDTAMYYCVRHGNFGNSYVSWFAYWGQGTLVTVSSASTKGPSVFPLAPCSRSTSESTAALGCLVKDYFPEPVTVSWNSGALTSGVHTFPAVLQSSGLYSLSSVVTVPSSSLGTKTYTCNVDHKPSNTKVDKRV
light: QAVVTQESALTTSPGETVTLTCRSSTGAVTTSNYANWVQEKPDHLFTGLIGGTNKRAPGVPARFSGSLIGDKAALTITGAQTEDEAIYFCALWYSNLWVFGGGTKVEIKRTVAAPSVFIFPPSDEQLKSGTASVVCLLNNFYPREAKVQWKVDNALQSGNSQESVTEQDSKDSTYSLSSTLTLSKADYEKHKVYACEVTHQGLSSPVTKSFNRGEC
notes: TA1 Fab, C17 VHH, IgG4 Fc KIH
On to B4, for which the Binding % came out at 106% in assay [1]; 99.2% in assay [2]; 99.3% in assay [3]; 96.5% in assay [4]; 78.2% in assay [5]; 100% in assay [6]. Moreover, the Binding % in assay [7] came to 103%; in assay [8] it was 93.2%.

Values taken from patent US20240400715A1 (VIBRANT PHARMA, published 2024).
